# Patent US20230242902A1, “A HIGHLY ERROR-PRONE […] R[…] FOR TARGETED CONTINUOUS EVOLUTION IN VIVO” (The Regents of the University of California, priority 2017, published 2023)
# Substitutions are numbered along the chain they refer to. In names and notes the source's numbering stands.
# B1: TP-DNAP1-4-2: TP-DNAP1 variant (L477V, L640Y, I777K, W814N), encoded by SEQ ID NO:11 (protein, listed as Kluyveromyces lactis)
# chain: MDYKDKALNDLRNVYADFDSLPLDFRQILIKDRATLLQKEDVEKKILERQEDAKKYAEYLKQSEIPERISLPNIKRHKGVSISFEETSEDMVLEPRPFIFDGLNIRCFRRETIFSLKNKILNMVKESSSFKNVSRQSVSFMYFKIFNKGKVIASTKSVNIYEDKIDERLEDLCNNFDDVLKKIIDVTYGYESLFVSETYSYVIFYAKSIYFPQPRCVNNWGNNIPNILTFDSFKLFTANKNNVSCIKQCSRFLWQKDFNTLEEMIEYKNGNICIVTPQLHINDVRDIKSFNDIRLYSESPIKTFSVIDNTITYLFYFKEHLGVIFNITKSRHDRRVTKFSPLSKFSDVKNITVCFDIESYFDPEKESNQVNIPFICCASIIYNKVIGNIVDFEGRDCVAQMIEYVVDICGELNISSVELIAHNGGGYDFHYILSSMYNPAAIKNILIRNNSFISFNFAHDGVKFSVKDSYSFLLCSVANASKAFLNEETFKKTDFPHHDLKTADDLYKVYKEWSSVNTEINHVVEKEKLLITSEHIVNFTKNDKSKTLIEWSKDYCRNDVLVLSKVWLEFKNAVEDIFNCELVDQTMTLAGLSYKLFQANMPFDVELRHPNKEDYFNMREALIGGRCISVNGIYKDVLCYDVKSLYPASMAFYDQPYGSFKRVSSRPKDELGIYYVRVTPNRNNKSNFFPIRSHNKITYNNFEESTYIAWYTNVDIDIGLSEGHNIEYIPFDSYGNIGYSWSKKGKIFEKYIKDVLYKLKIKYEKQNNKVKRNVIKKIMNSLWGKFAQKWVNFEYFIKSEDDIDFESEEAYKINDTDFMLIKKIKESTYSSKPIQNGVFTLSWARYHMKSIWDAGAKEGAECIYSDTDSIFVHKEHFKKNAKFMLNGLKVPIIGSEVGQLELECEFDKLLCAGKKQYMGFYTYFQDGKPCIKEKKRFKGIPSNYIIPELYAHLLSGADKEAKIQFLKFRREWGSVKGYIENKTVKAT
# B2: WT: wild-type Kluyveromyces lactis DNA polymerase TP-DNAP2, SEQ ID NO:13 (protein, listed as Kluyveromyces lactis)
# chain: MNDELAFLNSQIDDYSDDIEFLRTEVFRINRYSKSIYSLMKNSSKEAIKETIEFNKYGQEIHSKIKEKEISLIEAIKLMEKKYKYLRSLNKTKDKSKKKKIHTKDIETLKTIYKTKADFDIRNFKNAETFTYENYSLLIPSEKELIDLIPEIEEDYSYYFYVSLTITGPTIFGGVTRKVPIIDTYGDINKDFYNKIKENITKVLDRVPFYEEKESEIICKKVLITLTVNKWESIDKWYKNVKSKSKKFKDFTLFLASDTSKNCVQQCVEYLGGKWNTNYSLEKMIPQQKIVTYIPLLMDIQYVQSMEDLISDFDEPNTDCKNIARLLKWNGHMGVITKIDKDVKINRIQRKRIIDVENKEVKEVFFDIESFSDETKHQIPYLICWSYLGELYYRTGKNCIKEFVEEILSYNVDIILYAWYGSGYDYQHVLPYMKSKCIKDKYIIKNNMITYGELYYENAIIYLKDPYLFILTSLDKASKAFNVINKGEFPHSIIHSWEDLNKILPNWVKIQKRMIEYKDDNKLNIYYKNIEIFENDRNYNTILENAIEYCKVDVLAMEKVWIKFKKLLEKNLNITVSVKTFTLSQLSMKIMESKLPKYVKLYVPTLEEYSKIRNAIYGGRVISKNGIYEENIVYADVVSLYPSAMKLLKHSYGKPKLVDYIDFEKHGIYRVTLLNKHDQEPKNYLNFVPRRINRKLTWEWFKIHEGWYHTYDLIIAKSEGFDIYCHEGFEYPEKDYIFNDFIDTLYSMKETHTACSCEEQPCPIRMVAKIALNGGGYGKFVQKPIDKEIYIVKRDVVAGECDKLQENENGEICIGKRLVKRPLFYNLDSENYDKMIIEKEDEPIYSTQCGISILSASRYRLYKLCKQFENIDIIYSDTDSIFVKQKSVDWELFKSKCGSELGQLDSTIDDTKNAIISKMYIGGAKMYAFEYLNNKNKLITKLHCKGVPNYMLSLNQFKYLMESPDNTIAYKFEIIRRKLVNVITKDLIKDIKQT
# B3: S370Q: TP-DNAP2 variant (protein, listed as Kluyveromyces lactis)
# chain: B2 chain with S370Q
# B4: Y424Q: TP-DNAP2 variant (protein, listed as Kluyveromyces lactis)
# chain: B2 chain with Y424Q
# B5: w.t.: wild-type Kluyveromyces lactis DNA polymerase TP-DNAP1, SEQ ID NO:1 (protein, listed as Kluyveromyces lactis)
# chain: B1 chain with V477L, Y640L, K777I, N814W
# Columns and labels:
# [1] = system: p1-encoded leu2*; assay: p1 leu2* fluctuation tests in AR-Y304 (p1 mutation rate reporter strain, mutual orthogonality); format: cell-based, S. cerevisiae; details: for change in p1 mutation rate by TP-DNAP2: AR-Y304, noncognate polymerase in trans
# Source text: Strains for testing mutual orthogonality were generated by transforming a panel of CEN6/ARS4 vectors encoding TP-DNAP1 or TP-DNAP2 variants into two base strains, AR-Y304 and GA-Y021. AR-Y304 (Ravikumar et al., 2014, Nature Chemical Biology, 10:175-177) contains recombinant p1 encoding mKate2, URA3 and leu2* without disturbing the native TP-DNAP1 ORF. Similarly, GA-Y021 encodes recombinant p2 that replaces ORF1 with mKate2, URA3 and leu2* without disturbing the native TP-DNAP2 ORF.
# To precisely measure p1 and p2 per-base substitution mutation rates, several modifications were made to the small-scale protocol. First, 36 replicates were performed for reconfirmation of candidate TP-DNAP2 mutators, and 48 replicates for genomic and mutual orthogonality experiments. Titers were also determined for each strain after spot plating by pooling the residual volume from 4 replicates and plating dilutions on YPD. The expected number of LEU2 functional mutants (m) was determined by the Ma-Sandri-Sarkar maximum likelihood estimator (as calculated by the FALCOR tool and corrected for partial plating (Foster, 2006, Methods Enzymol, 409:195-213; Sarkar et al., 1992, Genetica, 85:173-179; Hall et al., 2009, Bioinformatics, 25:1564-1565). The mean mKate2 fluorescence was determined from 50,000 event counts on Attune™ NxT Flow Cytometer and converted to p2 copy number by using a calibration curve. To determine per-base substitution rates, the corrected m was normalized to the average cell titer, the p2 copy number, and the target size for functional leu2* reversion (2.33 bp). 95% confidence intervals were similarly scaled.
# To test whether the replication mechanisms of p1 and p2 are mutually orthogonal in vivo, p1 and p2 mutation rates were measured in the presence of a panel of TP-DNAP1 and TP-DNAP2 variants with varying mutation rates. Changes in p1 or p2 mutation rate induced by TP-DNAP variants would therefore signal a degree of cross-replication between TP-DNAP1/p1 and TP-DNAP2/p2, if any. A panel of six polymerases was introduced on CEN6/ARS4 vectors into two separate base strains, AR-Y304 (p1 mutation rate reporter strain) and GA-Y021 (p2 mutation rate reporter strain), encoding mKate2, URA3, and leu2* on either p1 or p2, respectively. Included in this panel were TP-DNAP1^WT and two error-prone TP-DNAP1 variants found in previous screens: TP-DNAP1^1777K, L900S and TP-DNAP1^L477V, L640Y, I777K, W814N. Also included were TP-DNAP2^WT and the error-prone TP-DNAP2^S370Q and TP-DNAP2^Y424Q variants found in this work. In AR-Y304 and GA-Y021, both p1 and p2 still encode their native wt TP-DNAP's. Any contribution to replication by a third TP-DNAP encoded in trans is monitored by detecting changes in linear plasmid mutation rate. Importantly, these experiments afford each DNAP an opportunity to replicate its native plasmid and lose its attached TP, becoming “spent” and perhaps more likely to replicate its noncognate linear plasmid through DNAP exchange (Klassen and Meinhardt, 2007, Linear Protein-Primed Replicating Plasmids in Eukaryotic Microbes, in Microbial Linear Plasmids, pp 1 87-226. Springer, Berlin, Heidelberg). The presence of TP-DNAP1^WT or TP-DNAP2^WT in trans had no effect on their noncognate linear plasmids' mutation rate. […] Likewise, p1 mutation rate was unaltered in the presence of mutagenic TP-DNAP2^S370Q and TP-DNAP2^Y424Q, which increased p2 mutation rate by 29- and 16-fold, respectively (FIG. 9). Thus, TP-DNAP1 replicates p1 with at least 870-fold specificity over p2, while TP-DNAP2 targets p2 with at least 29-fold specificity over p1. The level of mutual orthogonality measured here is limited by the error-rates of DNAPs used, especially that of TP-DNAP2 variants.
# [2] = system: genomic URA3 locus; assay: Fluctuation tests of genomically encoded URA3 in the presence of TP-DNAP2 variants (AR-Y436); format: cell-based, S. cerevisiae; details: for per-base substitution rate at genomic URA3 locus: TP-DNAP2 in trans, AR-Y436, (95% C.I.); for host genomic mutation rate: error-prone TP-DNAP2 variant present
# Protocol: Fluctuation tests using genomically encoded URA3 were performed in the presence of TP-DNAP2 variants to determine the genomic per-base substitution rates, similarly to previously described protocols (Lang and Murray, 2008, Genetics, 178:67-82). AR-Y292 derived strains harboring the appropriate TP-DNAP2 variant encoded on a CEN6/ARS4 vector (with a HIS3 marker) were grown in liquid SC medium lacking uracil and histidine until saturation. Each strain was diluted 1:5,000 into SC medium lacking histidine and aliquoted into 48 replicates of 200 μL each. Cultures were grown for 48 hours at 30° C. to reach saturation. Saturated cultures were washed with 400 μL 0.9% NaCl and resuspended in 420 μL 0.9% NaCl. 400 μL from each replicate was spot plated on pre-dried solid SC medium lacking histidine and supplemented with 5-FOA (1 g/L). The residual 20 μL from six replicates were pooled, diluted, and plated on solid YPD medium to determine cell titers. Plates were allowed to dry before incubation at 30° C. Colonies were counted on titer plates after 2 days, and on spot plates after 5 days of growth. The expected number of mutants (m) was calculated using the MSS maximum likelihood estimator method via the FALCOR tool, and corrected for partial plating, as described above. To determine per-base substitution rates, the corrected m was normalized to the average cell titer, the URA3 copy number (1 in haploid yeast), and the target size for 5-FOA resistance via substitutions in URA3 (104 bp). 95% confidence intervals were similarly scaled.
# Like p1 replication by TP-DNAP1, p2 replication by TP-DNAP2 occurs in the cytoplasm via a protein-primed mechanism, making it likely that p2 replication is orthogonal to host genome replication. To test this, CEN6/ARS4 vectors lacking TP-DNAP2, or encoding codon optimized versions of TP-DNAP2^WT, TP-DNAP2^S370Q, or TP-DNAP2^Y424Q were transformed into AR-Y436. AR-Y436 contains wt p1 and p2, as well as an intact URA3 locus in the host genome. Genomic per-base substitution rates were determined via fluctuation tests based on the frequency of 5-FOA resistant clones arising from mutations in the genomic URA3 locus, as previously described (Ravikumar et al., 2014, Nature Chemical Biology, 10:175-177; Lang and Murray, 2008, Genetics, 178:67-82). The substitution rich spectrum of URA3-disabling mutations makes this assay ideal for detecting whether the elevated substitution rate of TP-DNAP2^S370Q or TP-DNAP2^Y424Q contributes to genomic mutation. No increase in the host genomic mutation rate was observed when error-prone variants of TP-DNAP2^S370Q and TP-DNAP2^Y424Q were present (Table 8).
Molecule,"fold increase of p1 mutation rate ([1]; AR-Y304, polymerase in trans) [fold]",per-base substitution rate at genomic URA3 locus [2],change in p1 mutation rate by TP-DNAP2 [1],host genomic mutation rate [2],specificity for p1 over p2 [1]
B1,870,–,–,–,–
B2,–,2.2 (1.2-3.4) ×10^−10,no effect,–,–
B3,–,1.8 (1.0-2.8) ×10^−10,unaltered,No increase,–
B4,–,1.8 (1.0-2.9) ×10^−10,unaltered,No increase,–
B5,–,–,–,–,at least 870 fold
